This passage reports Inhibition by ATIII: Secondary reaction constant results from US20040197858A1.

Test [1] deals with purified α-thrombin derived from plasma (human) (UniProt P00734). Description: cell-based or functional assay.
Test [2] has as its target purified recombinant α-thrombin (human) (UniProt P00734). Description: cell-based or functional assay.

On to antithrombin III, for which the Inhibition by ATIII: Secondary reaction constant in test [1] turned out to be 0.65 µM⁻¹ min⁻¹; in test [2], 0.57 µM⁻¹ min⁻¹.
